In the supplement of paper PMC5998384:

What was measured:
[1] = tested on: HeLa Kyoto; assay: solubility in G1/S (NP-40 vs SDS abundance) (log2 ratio); higher = more soluble; details: cell cycle stage: G1/S
[2] = tested on: HeLa Kyoto; assay: solubility change mitosis vs G1/S (difference of NP-40 vs SDS log2 ratios) (log2 ratio difference); higher = more soluble in mitosis
[3] = tested on: HeLa Kyoto; assay: melting temperature (median over replicates), in situ; higher = more thermally stable
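For melting temperature (median over replicates), in situ in this document: HeLa Kyoto cells synchronized by double thymidine or nocodazole block, proteins quantified by TMT10plex mass spectrometry, three independent biological replicates.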
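For solubility change mitosis vs G1/S (difference of NP-40 vs SDS log2 ratios) in this document: synchronized HeLa Kyoto cells (double thymidine block for G1/S, nocodazole release for mitosis), protein amounts in NP-40 versus SDS lysates quantified by mass spectrometry, three biological replicates.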
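For solubility in G1/S (NP-40 vs SDS abundance) in this document: HeLa Kyoto cells arrested at G1/S by double thymidine block, proteins quantified by TMT10plex mass spectrometry in mild NP-40 versus SDS extracts, three biological replicates.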

Sequence of IRF2BPL (chain, as listed by the source): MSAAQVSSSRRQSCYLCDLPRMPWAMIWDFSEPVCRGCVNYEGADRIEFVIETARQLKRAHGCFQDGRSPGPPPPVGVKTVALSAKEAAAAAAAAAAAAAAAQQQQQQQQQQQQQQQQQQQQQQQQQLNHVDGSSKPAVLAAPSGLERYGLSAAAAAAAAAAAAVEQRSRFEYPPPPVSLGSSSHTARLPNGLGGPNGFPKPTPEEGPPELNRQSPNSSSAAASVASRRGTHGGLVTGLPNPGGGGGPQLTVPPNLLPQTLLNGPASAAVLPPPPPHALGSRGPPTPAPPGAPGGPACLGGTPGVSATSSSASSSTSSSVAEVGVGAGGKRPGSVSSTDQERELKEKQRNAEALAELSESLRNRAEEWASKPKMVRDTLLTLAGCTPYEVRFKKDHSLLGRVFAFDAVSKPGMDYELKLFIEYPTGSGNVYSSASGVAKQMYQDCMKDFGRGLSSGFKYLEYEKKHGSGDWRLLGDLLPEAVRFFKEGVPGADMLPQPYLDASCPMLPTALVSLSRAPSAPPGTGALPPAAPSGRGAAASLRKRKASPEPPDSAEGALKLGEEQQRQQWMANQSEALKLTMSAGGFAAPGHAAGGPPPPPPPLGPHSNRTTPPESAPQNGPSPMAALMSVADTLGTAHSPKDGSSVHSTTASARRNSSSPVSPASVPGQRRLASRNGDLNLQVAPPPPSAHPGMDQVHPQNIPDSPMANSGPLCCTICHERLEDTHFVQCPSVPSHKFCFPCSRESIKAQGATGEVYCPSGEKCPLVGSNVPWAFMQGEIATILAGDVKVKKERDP

MAASRSTRVTRSTVGLNGLDESFCGRTLRNRSIAHPEEISSNSQVRSRSPKKRPEPVPIQKGNNNGRTTDLKQQSTRESWVSPRKRGLSSSEKDNIERQAIENCERRQTEPVSPVLKRIKRCLRSEAPNSSEEDSPIKSDKESVEQRSTVVDNDADFQGTKRACRCLILDDCEKREIKKVNVSEEGPLNSAVVEEITGYLAVNGVDDSDSAVINCDDCQPDGNTKQNSIGSYVLQEKSVAENGDTDTQTSMFLDSRKEDSYIDHKVPCTDSQVQVKLEDHKIVTACLPVEHVNQLTTEPATGPFSETQSSLRDSEEEVDVVGDSSASKEQCKENTNNELDTSLESMPASGEPEPSPVLDCVSAQMMSLSEPQEHRYTLRTSPRRAAPTRGSPTKNSSPYRENGQFEENNLSPNETNATVSDNVSQSPTNPGEISQNEKGICCDSQNNGSEGVSKPPSEARLNIGHLPSAKESASQHITEEEDDDPDVYYFESDHVALKHNKDYQRLLQTIAVLEAQRSQAVQDLESLGRHQREALKNPIGFVEKLQKKADIGLPYPQRVVQLPEIVWDQYTHSLGNFEREFKNRKRHTRRVKLVFDKVGLPARPKSPLDPKKDGESLSYSMLPLSDGPEGSSSRPQMIRGRLCDDTKPETFNQLWTVEEQKKLEQLLIKYPPEEVESRRWQKIADELGNRTAKQVASRVQKYFIKLTKAGIPVPGRTPNLYIYSKKSSTSRRQHPLNKHLFKPSTFMTSHEPPVYMDEDDDRSCFHSHMNTAVEDASDDESIPIMYRNLPEYKELLQFKKLKKQKLQQMQAESGFVQHVGFKCDNCGIEPIQGVRWHCQDCPPEMSLDFCDSCSDCLHETDIHKEDHQLEPIYRSETFLDRDYCVSQGTSYNYLDPNYFPANR [ZZZ3]
solubility in G1/S (log2) [1]: -0.198
solubility change mitosis (log2) [2]: 0.273
melting temperature ([3]; cell cycle stage: G1/S): 48.9 °C
melting temperature ([3]; cell cycle stage: mitosis): 49.1 °C

MGGLFWRSALRGLRCGPRAPGPSLLVRHGSGGPSWTRERTLVAVKPDGVQRRLVGDVIQRFERRGFTLVGMKMLQAPESVLAEHYQDLRRKPFYPALIRYMSSGPVVAMVWEGYNVVRASRAMIGHTDSAEAAPGTIRGDFSVHISRNVIHASDSVEGAQREIQLWFQSSELVSWADGGQHSSIHPA [NME4]
solubility in G1/S (log2) [1]: 0.0944
solubility change mitosis (log2) [2]: -0.189
melting temperature ([3]; cell cycle stage: G1/S): 54.9 °C
melting temperature ([3]; cell cycle stage: mitosis): 54.5 °C

MEDSGKTFSSEEEEANYWKDLAMTYKQRAENTQEELREFQEGSREYEAELETQLQQIETRNRDLLSENNRLRMELETIKEKFEVQHSEGYRQISALEDDLAQTKAIKDQLQKYIRELEQANDDLERAKRATIMSLEDFEQRLNQAIERNAFLESELDEKENLLESVQRLKDEARDLRQELAVQQKQEKPRTPMPSSVEAERTDTAVQATGSVPSTPIAHRGPSSSLNTPGSFRRGLDDSTGGTPLTPAARISALNIVGDLLRKVGALESKLASCRNLVYDQSPNRTGGPASGRSSKNRDGGERRPSSTSVPLGDKGLDTSCRWLSKSTTRSSSSC [NDE1]
solubility in G1/S (log2) [1]: 0.236
solubility change mitosis (log2) [2]: 0.568
melting temperature ([3]; cell cycle stage: G1/S): 54.1 °C
melting temperature ([3]; cell cycle stage: mitosis): 53.7 °C

IRF2BPL
solubility in G1/S (log2) [1]: 0.519
solubility change mitosis (log2) [2]: -0.131
melting temperature ([3]; cell cycle stage: G1/S): 50 °C
melting temperature ([3]; cell cycle stage: mitosis): 50.9 °C

MSTGFSFGSGTLGSTTVAAGGTSTGGVFSFGTGASSNPSVGLNFGNLGSTSTPATTSAPSSGFGTGLFGSKPATGFTLGGTNTGIATTITTGLTLGTPATTSAATTGFSLGFNKPAASATPFALPITSTSASGLTLSSALTSTPAASTGFTLNNLGGTTATTTTASTGLSLGGALAGLGGSLFQSTNTGTSGLGQNALGLTLGTTAATSTAGNEGLGGIDFSSSSDKKSDKTGTRPEDSKALKDENLPPVICQDVENLQKFVKEQKQVQEEISRMSSKAMLKVQEDIKALKQLLSLAANGIQRNTLNIDKLKIETAQELKNAEIALRTQKTPPGLQHEYAAPADYFRILVQQFEVQLQQYRQQIEELENHLATQANNSHITPQDLSMAMQKIYQTFVALAAQLQSIHENVKVLKEQYLGYRKMFLGDAVDVFETRRAEAKKWQNTPRVTTGPTPFSTMPNAAAVAMAATLTQQQQPATGPQPSLGVSFGTPFGSGIGTGLQSSGLGSSNLGGFGTSSGFGCSTTGASTFGFGTTNKPSGSLSAGFGSSSTSGFNFSNPGITASAGLTFGVSNPASAGFGTGGQLLQLKKPPAGNKRGKR [NUP58]
solubility in G1/S (log2) [1]: 0.542
solubility change mitosis (log2) [2]: 0.234
melting temperature ([3]; cell cycle stage: G1/S): 54.1 °C
melting temperature ([3]; cell cycle stage: mitosis): 52.7 °C

MTELAGASSSCCHRPAGRGAMQSVLHHFQRLRGREGGSHFINTSSPRGEAKMSITSDEVNFLVYRYLQESGFSHSAFTFGIESHISQSNINGTLVPPAALISILQKGLQYVEAEISINEDGTVFDGRPIESLSLIDAVMPDVVQTRQQAFREKLAQQQASAAAAAAAATAAATAATTTSAGVSHQNPSKNREATVNGEENRAHSVNNHAKPMEIDGEVEIPSSKATVLRGHESEVFICAWNPVSDLLASGSGDSTARIWNLNENSNGGSTQLVLRHCIREGGHDVPSNKDVTSLDWNTNGTLLATGSYDGFARIWTEDGNLASTLGQHKGPIFALKWNRKGNYILSAGVDKTTIIWDAHTGEAKQQFPFHSAPALDVDWQNNTTFASCSTDMCIHVCRLGCDRPVKTFQGHTNEVNAIKWDPSGMLLASCSDDMTLKIWSMKQEVCIHDLQAHNKEIYTIKWSPTGPATSNPNSNIMLASASFDSTVRLWDIERGVCTHTLTKHQEPVYSVAFSPDGKYLASGSFDKCVHIWNTQSGNLVHSYRGTGGIFEVCWNARGDKVGASASDGSVCVLDLRK [TBL1X]
solubility in G1/S (log2) [1]: -0.043
solubility change mitosis (log2) [2]: -0.0781
melting temperature ([3]; cell cycle stage: mitosis): 52.5 °C

MAAQPPRGIRLSALCPKFLHTNSTSHTWPFSAVAELIDNAYDPDVNAKQIWIDKTVINDHICLTFTDNGNGMTSDKLHKMLSFGFSDKVTMNGHVPVGLYGNGFKSGSMRLGKDAIVFTKNGESMSVGLLSQTYLEVIKAEHVVVPIVAFNKHRQMINLAESKASLAAILEHSLFSTEQKLLAELDAIIGKKGTRIIIWNLRSYKNATEFDFEKDKYDIRIPEDLDEITGKKGYKKQERMDQIAPESDYSLRAYCSILYLKPRMQIILRGQKVKTQLVSKSLAYIERDVYRPKFLSKTVRITFGFNCRNKDHYGIMMYHRNRLIKAYEKVGCQLRANNMGVGVVGIIECNFLKPTHNKQDFDYTNEYRLTITALGEKLNDYWNEMKVKKNTEYPLNLPVEDIQKRPDQTWVQCDACLKWRKLPDGMDQLPEKWYCSNNPDPQFRNCEVPEEPEDEDLVHPTYEKTYKKTNKEKFRIRQPEMIPRINAELLFRPTALSTPSFSSPKESVPRRHLSEGTNSYATRLLNNHQVPPQSEPESNSLKRRLSTRSSILNAKNRRLSSQFENSVYKGDDDDEDVIILEENSTPKPAVDHDIDMKSEQSHVEQGGVQVEFVGDSEPCGQTGSTSTSSSRCDQGNTAATQTEVPSLVVKKEETVEDEIDVRNDAVILPSCVEAEAKIHETQETTDKSADDAGCQLQELRNQLLLVTEEKENYKRQCHMFTDQIKVLQQRILEMNDKYVKKETCHQSTETDAVFLLESINGKSESPDHMVSQYQQALEEIERLKKQCSALQHVKAECSQCSNNESKSEMDEMAVQLDDVFRQLDKCSIERDQYKSEVELLEMEKSQIRSQCEELKTEVEQLKSTNQQTATDVSTSSNIEESVNHMDGESLKLRSLRVNVGQLLAMIVPDLDLQQVNYDVDVVDEILGQVVEQMSEISST [MORC3]
solubility in G1/S (log2) [1]: -0.0527
solubility change mitosis (log2) [2]: -0.206
melting temperature ([3]; cell cycle stage: G1/S): 48.7 °C
melting temperature ([3]; cell cycle stage: mitosis): 49.6 °C

MSLVDLGKKLLEAARAGQDDEVRILMANGAPFTTDWLGTSPLHLAAQYGHYSTTEVLLRAGVSRDARTKVDRTPLHMAASEGHASIVEVLLKHGADVNAKDMLKMTALHWATEHNHQEVVELLIKYGADVHTQSKFCKTAFDISIDNGNEDLAEILQIAMQNQINTNPESPDTVTIHAATPQFIIGPGGVVNLTGLVSSENSSKATDETGVSAVQFGNSSTSVLATLAALAEASAPLSNSSETPVVATEEVVTAESVDGAIQQVVSSGGQQVITIVTDGIQLGNLHSIPTSGIGQPIIVTMPDGQQVLTVPATDIAEETVISEEPPAKRQCIEIIENRVESAEIEEREALQKQLDEANREAQKYRQQLLKKEQEAEAYRQKLEAMTRLQTNKEAV [GABPB1]
solubility in G1/S (log2) [1]: 0.111
solubility change mitosis (log2) [2]: -0.139
melting temperature ([3]; cell cycle stage: G1/S): 46.9 °C
melting temperature ([3]; cell cycle stage: mitosis): 49.7 °C

MAQETNHSQVPMLCSTGCGFYGNPRTNGMCSVCYKEHLQRQNSSNGRISPPATSVSSLSESLPVQCTDGSVPEAQSALDSTSSSMQPSPVSNQSLLSESVASSQLDSTSVDKAVPETEDVQASVSDTAQQPSEEQSKSLEKPKQKKNRCFMCRKKVGLTGFECRCGNVYCGVHRYSDVHNCSYNYKADAAEKIRKENPVVVGEKIQKI [ZFAND6]
solubility in G1/S (log2) [1]: 0.396
solubility change mitosis (log2) [2]: -0.182
melting temperature ([3]; cell cycle stage: G1/S): 56.7 °C

MSCGNEFVETLKKIGYPKADNLNGEDFDWLFEGVEDESFLKWFCGNVNEQNVLSERELEAFSILQKSGKPILEGAALDEALKTCKTSDLKTPRLDDKELEKLEDEVQTLLKLKNLKIQRRNKCQLMASVTSHKSLRLNAKEEEATKKLKQSQGILNAMITKISNELQALTDEVTQLMMFFRHSNLGQGTNPLVFLSQFSLEKYLSQEEQSTAALTLYTKKQFFQGIHEVVESSNEDNFQLLDIQTPSICDNQEILEERRLEMARLQLAYICAQHQLIHLKASNSSMKSSIKWAEESLHSLTSKAVDKENLDAKISSLTSEIMKLEKEVTQIKDRSLPAVVRENAQLLNMPVVKGDFDLQIAKQDYYTARQELVLNQLIKQKASFELLQLSYEIELRKHRDIYRQLENLVQELSQSNMMLYKQLEMLTDPSVSQQINPRNTIDTKDYSTHRLYQVLEGENKKKELFLTHGNLEEVAEKLKQNISLVQDQLAVSAQEHSFFLSKRNKDVDMLCDTLYQGGNQLLLSDQELTEQFHKVESQLNKLNHLLTDILADVKTKRKTLANNKLHQMEREFYVYFLKDEDYLKDIVENLETQSKIKAVSLED [HAUS3]
solubility in G1/S (log2) [1]: 0.0967
solubility change mitosis (log2) [2]: 0.224
melting temperature ([3]; cell cycle stage: G1/S): 48.6 °C
melting temperature ([3]; cell cycle stage: mitosis): 49.8 °C

MAICQFFLQGRCRFGDRCWNEHPGARGAGGGRQQPQQQPSGNNRRGWNTTSQRYSNVIQPSSFSKSTPWGGSRDQEKPYFSSFDSGASTNRKEGFGLSENPFASLSPDEQKDEKKLLEGIVKDMEVWESSGQWMFSVYSPVKKKPNISGFTDISPEELRLEYHNFLTSNNLQSYLNSVQRLINQWRNRVNELKSLNISTKVALLSDVKDGVNQAAPAFGFGSSQAATFMSPGFPVNNSSSDNAQNFSFKTNSGFAAASSGSPAGFGSSPAFGAAASTSSGISTSAPAFGFGKPEVTSAASFSFKSPAASSFGSPGFSGLPASLATGPVRAPVAPAFGGGSSVAGFGSPGSHSHTAFSKPSSDTFGNSSISTSLSASSSIIATDNVLFTPRDKLTVEELEQFQSKKFTLGKIPLKPPPLELLNV [NUPL2]
solubility in G1/S (log2) [1]: -0.304
solubility change mitosis (log2) [2]: 0.326
melting temperature ([3]; cell cycle stage: mitosis): 51.7 °C

MSGAGEALAPGPVGPQRVAEAGGGQLGSTAQGKCDKDNTEKDITQATNSHFTHGEMQDQSIWGNPSDGELIRTQPQRLPQLQTSAQVPSGEEIGKIKNGHTGLSNGNGIHHGAKHGSADNRKLSAPVSQKMHRKIQSSLSVNSDISKKSKVNAVFSQKTGSSPEDCCVHCILACLFCEFLTLCNIVLGQASCGICTSEACCCCCGDEMGDDCNCPCDMDCGIMDACCESSDCLEICMECCGICFPS [MDFIC]
solubility in G1/S (log2) [1]: -0.698
solubility change mitosis (log2) [2]: 0.671
melting temperature ([3]; cell cycle stage: G1/S): 57.2 °C
melting temperature ([3]; cell cycle stage: mitosis): 55.7 °C

MMATPNQTACNAESPVALEEAKTSGAPGSPQTPPERHDSGGSLPLTPRMESHSEDEDLAGAVGGLGWNSRSPRTQSPGGCSAEAVLARKKHRRRPSKRKRHWRPYLELSWAEKQQRDERQSQRASRVREEMFAKGQPVAPYNTTQFLMNDRDPEEPNLDVPHGISHPGSSGESEAGDSDGRGRAHGEFQRKDFSETYERFHTESLQGRSKQELVRDYLELEKRLSQAEEETRRLQQLQACTGQQSCRQVEELAAEVQRLRTENQRLRQENQMWNREGCRCDEEPGT [HEXIM2]
solubility in G1/S (log2) [1]: 0.492
solubility change mitosis (log2) [2]: 0.139
melting temperature ([3]; cell cycle stage: G1/S): 54.6 °C
melting temperature ([3]; cell cycle stage: mitosis): 53.4 °C
